{"source": "paper PMC6294518", "about": "“Structural insights into the duplex DNA processing of TREX2” (Nucleic Acids Research, 2018)", "key": {"[1]": {"biological_target": "T1, mTREX2 (Mus musculus, UniProt Q9R1A9 1-236)", "T1 sequence": "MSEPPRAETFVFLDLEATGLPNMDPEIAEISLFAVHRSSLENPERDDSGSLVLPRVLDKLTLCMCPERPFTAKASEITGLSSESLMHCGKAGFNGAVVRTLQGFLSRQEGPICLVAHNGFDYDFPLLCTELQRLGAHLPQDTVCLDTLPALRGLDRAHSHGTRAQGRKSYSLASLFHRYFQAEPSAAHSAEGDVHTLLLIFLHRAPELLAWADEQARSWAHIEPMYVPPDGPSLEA", "assay": "X-ray crystallography (2.7 A); 2 Mg2+ per active site; Co-crystallization: mTREX2 5-8 mg/ml (stock 50 mM Tris-HCl, 400 mM NaCl, pH 7.0) with DNA at molar ratio 1:1.2; crystallization conditions in Table S2 not in the material", "conditions": "protein: recombinant; tags: pET28a vector, TALON-purified (His tag implied); chain copies: 2; hairpin; 3' overhang 2 nt"}, "[2]": {"biological_target": "the molecule itself", "assay": "crystal structure; apo-mTREX2 at 1.9 Å, one dimer in the asymmetric unit; a dimer is also seen in the Y-shaped DNA complex and the product (dCMP) complex"}, "[3]": {"biological_target": "T1, mTREX2", "assay": "X-ray crystallography (1.9 A); 2 Mg2+ per active site; Co-crystallization: mTREX2 5-8 mg/ml (stock 50 mM Tris-HCl, 400 mM NaCl, pH 7.0) with DNA at molar ratio 1:1.2; crystallization conditions in Table S2 not in the material", "conditions": "protein: recombinant; tags: pET28a vector, TALON-purified (His tag implied); chain copies: 2; hairpin; 1-nt unpaired 3' overhang, 4-nt unpaired 5' overhang; 2 DNAs per protein dimer"}}}
{"binder": "GGCCCTCTTTAGGGCCTT (structured_DNA)", "note": "[duplex DNA with 2-nt 3'-overhang (stem loop)]", "values": [{"measurement": "binding result", "setting": "[1]", "value": "binds"}]}
{"binder": "mouse TREX2 (three prime repair exonuclease 2) (enzyme, TREX2, three prime repair exonuclease 2, mouse; NCBI Gene ID 24102; Cloned into pET28a and purified on a TALON column; Homodimer in the crystal and by gel filtration; also called mTREX2; apo-mTREX2; source: E. coli BL21-CodonPlus (DE3)-Rosetta, purified (HiTrap TALON, HiTrap Q, Superdex 75)) MSEPPRAETFVFLDLEATGLPNMDPEIAEISLFAVHRSSLENPERDDSGSLVLPRVLDKLTLCMCPERPFTAKASEITGLSSESLMHCGKAGFNGAVVRTLQGFLSRQEGPICLVAHNGFDYDFPLLCTELQRLGAHLPQDTVCLDTLPALRGLDRAHSHGTRAQGRKSYSLASLFHRYFQAEPSAAHSAEGDVHTLLLIFLHRAPELLAWADEQARSWAHIEPMYVPPDGPSLEA", "values": [{"measurement": "stoichiometry N", "setting": "[2]", "value": 2}]}
{"binder": "TGCCAGGCCCTCTTTAGGGCCTT (structured_DNA)", "note": "[Y-shaped DNA (23-nt stem loop)]", "values": [{"measurement": "binding result", "setting": "[3]", "value": "binds"}]}
